Numbered stars: 1 amine (or outer) side, 2 acyl side, 3 side chain; on linkers, the order of the positions; unused ones are H or OH. Bridge positions count the residues as written; N and C are the ends. Side chains are listed from the residue outwards. Ends that are not written are not given here. * marks the point of attachment. C20 diacid = O=C(O)CCCCCCCCCCCCCCCCCCC(=O)*; γGlu = O=C(O)[C@H](CCC(=O)[*:2])N[*:1]
T1: human amylin receptor (amylin 3(a) receptor: human calcitonin receptor coexpressed with RAMP-3) (human, UniProt P30988 25-474; O60896 24-148)
T1 sequence (looked up) 1: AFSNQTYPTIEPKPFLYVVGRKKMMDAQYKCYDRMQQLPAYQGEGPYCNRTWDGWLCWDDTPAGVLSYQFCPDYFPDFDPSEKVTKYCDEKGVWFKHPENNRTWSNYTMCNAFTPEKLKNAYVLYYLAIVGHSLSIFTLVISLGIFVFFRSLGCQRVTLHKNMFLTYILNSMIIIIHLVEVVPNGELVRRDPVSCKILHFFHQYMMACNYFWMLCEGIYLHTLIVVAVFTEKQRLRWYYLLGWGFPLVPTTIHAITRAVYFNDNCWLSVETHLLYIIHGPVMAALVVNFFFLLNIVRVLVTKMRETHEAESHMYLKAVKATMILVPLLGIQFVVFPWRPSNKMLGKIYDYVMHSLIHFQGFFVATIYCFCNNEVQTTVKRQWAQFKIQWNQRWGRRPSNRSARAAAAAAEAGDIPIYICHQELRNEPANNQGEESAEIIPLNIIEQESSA
T1 sequence (looked up) 2: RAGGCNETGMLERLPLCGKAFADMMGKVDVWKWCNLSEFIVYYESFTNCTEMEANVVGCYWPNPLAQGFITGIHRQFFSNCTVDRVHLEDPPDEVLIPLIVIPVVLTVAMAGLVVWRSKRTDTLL

T2: human calcitonin receptor (human, UniProt P30988 25-474)
T2 sequence (looked up): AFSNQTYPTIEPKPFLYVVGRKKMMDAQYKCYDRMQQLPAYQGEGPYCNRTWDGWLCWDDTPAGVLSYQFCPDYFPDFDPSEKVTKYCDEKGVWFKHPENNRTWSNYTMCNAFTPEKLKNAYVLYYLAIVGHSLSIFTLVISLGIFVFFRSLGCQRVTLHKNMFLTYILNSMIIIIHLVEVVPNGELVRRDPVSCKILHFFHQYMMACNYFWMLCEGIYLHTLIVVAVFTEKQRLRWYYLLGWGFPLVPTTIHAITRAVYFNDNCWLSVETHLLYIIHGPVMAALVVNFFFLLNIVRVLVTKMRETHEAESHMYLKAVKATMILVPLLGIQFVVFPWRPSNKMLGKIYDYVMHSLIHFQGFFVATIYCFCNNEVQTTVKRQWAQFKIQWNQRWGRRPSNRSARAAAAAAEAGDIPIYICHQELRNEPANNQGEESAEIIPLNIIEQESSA


Assays:
[1] = target: T1, human amylin receptor (amylin 3(a) …); experiment: cell-based or functional assay
[2] = target: T2, human calcitonin receptor; experiment: cell-based or functional assay
[3] = target: T1, human amylin receptor (amylin 3(a) …); experiment: SPA competition against 125I-rat amylin, membranes of BHK amylin 3(a)/CRE-luc cells (Assay V)
Protocol: The binding assay was performed using scintillation proximity assay (SPA) beads (RPNQ0001) from PerkinElmer and cell membranes from the Amylin 3(a)/CRE-luc cells (as described in Assay (II)) were used. Membranes were prepared in the following way; the cells were rinsed with PBS and incubated with Versene for approximately 5 min before harvesting. The cells were flushed with PBS and the cell-suspension was centrifuged for 5 min at 1000 rpm. Cells were homogenized (ultrathurrax) in a buffer containing 20 mM Na-HEPES and 10 mM EDTA (pH 7.4) and centrifuged at 20.000 rpm for 15 min. The resulting pellet was resuspended, homogenized and centrifuged (20.000 rpm, 15 min) in a buffer containing 20 mM Na-HEPES and 0.1 mM EDTA (pH 7.4, buffer 2). The resulting pellet was resuspended in buffer 2 and protein concentration was measured (BCA protein Assay, Pierce). The homogenate was kept cold during the whole procedure. The membranes were kept at −80° C. until use. The assay was performed in a 384 well Optiplate (PerkinElmer) in a total volume of 40 ul. Membranes were mixed with SPA beads. Final concentration of membranes 35 ng/μL final and SPA beads was 0.05 mg/well. Test-compounds were dissolved in DMSO and further diluted in assay buffer (50 mM Hepes, pH 7.4, 1 mM CaCl2, 5 mM MgCl₂, 0.1% OA and 0.02% Tween20). […] The final mixture was incubated with shaking at 400 rpm for 120 min at 25° C. prior to centrifugation (1500 rpm, 10 min). Samples were analyzed on TopCounter™ (Packard). The IC₅₀ was calculated using (one site binding competition analysis) GraphPad Prism5 as a measure of receptor affinity.

hAmylin-R funct. EC50 (pM) [1] [pM] | Ratio hCT/hAmylin funct. [2] | hCTR funct. EC50 (pM) [2] [pM] | IC50 [3] [nM] | Binder
703 | 10.6 | 7430 | 0.957 | K([γGlu-γGlu-C20 diacid])CNTATCATQRLAEFLRHSSPNFGAIPSSTNVGRETY-NH2 (disulfide 2-7; N-terminus assumed; SMILES CC[C@H](C)[C@H](NC(=O)[C@H](C)NC(=O)CNC(=O)[C@H](Cc1ccccc1)NC(=O)[C@H](CC(N)=O)NC(=O)[C@@H]1CCCN1C(=O)[C@H](CO)NC(=O)[C@H](CO)NC(=O)[C@H](Cc1c[nH]cn1)NC(=O)[C@H](CCCNC(=N)N)NC(=O)[C@H](CC(C)C)NC(=O)[C@H](Cc1ccccc1)NC(=O)[C@H](CCC(=O)O)NC(=O)[C@H](C)NC(=O)[C@H](CC(C)C)NC(=O)[C@H](CCCNC(=N)N)NC(=O)[C@H](CCC(N)=O)NC(=O)[C@@H](NC(=O)[C@H](C)NC(=O)[C@@H]1CSSC[C@H](NC(=O)[C@@H](N)CCCCNC(=O)CC[C@H](NC(=O)CC[C@H](NC(=O)CCCCCCCCCCCCCCCCCCC(=O)O)C(=O)O)C(=O)O)C(=O)N[C@@H](CC(N)=O)C(=O)N[C@@H]([C@@H](C)O)C(=O)N[C@@H](C)C(=O)N[C@@H]([C@@H](C)O)C(=O)N1)[C@@H](C)O)C(=O)N1CCC[C@H]1C(=O)N[C@@H](CO)C(=O)N[C@@H](CO)C(=O)N[C@H](C(=O)N[C@@H](CC(N)=O)C(=O)N[C@H](C(=O)NCC(=O)N[C@@H](CCCNC(=N)N)C(=O)N[C@@H](CCC(=O)O)C(=O)N[C@H](C(=O)N[C@@H](Cc1ccc(O)cc1)C(N)=O)[C@@H](C)O)C(C)C)[C@@H](C)O)
5170 | 17.3 | 89600 | 1.19 | K([γGlu-γGlu-C20 diacid])CNTATCATQRLAEFLRHSSNNPGAILSSTNVGPETY-NH2 (disulfide 2-7)
225 | 10.5 | 2360 | 0.121 | K([γGlu-γGlu-C20 diacid])CNTATCATQRLAEFLRHSSPNFGAIPSSTNVGPETY-NH2 (disulfide 2-7; N-terminus assumed; SMILES CC[C@H](C)[C@H](NC(=O)[C@H](C)NC(=O)CNC(=O)[C@H](Cc1ccccc1)NC(=O)[C@H](CC(N)=O)NC(=O)[C@@H]1CCCN1C(=O)[C@H](CO)NC(=O)[C@H](CO)NC(=O)[C@H](Cc1c[nH]cn1)NC(=O)[C@H](CCCNC(=N)N)NC(=O)[C@H](CC(C)C)NC(=O)[C@H](Cc1ccccc1)NC(=O)[C@H](CCC(=O)O)NC(=O)[C@H](C)NC(=O)[C@H](CC(C)C)NC(=O)[C@H](CCCNC(=N)N)NC(=O)[C@H](CCC(N)=O)NC(=O)[C@@H](NC(=O)[C@H](C)NC(=O)[C@@H]1CSSC[C@H](NC(=O)[C@@H](N)CCCCNC(=O)CC[C@H](NC(=O)CC[C@H](NC(=O)CCCCCCCCCCCCCCCCCCC(=O)O)C(=O)O)C(=O)O)C(=O)N[C@@H](CC(N)=O)C(=O)N[C@@H]([C@@H](C)O)C(=O)N[C@@H](C)C(=O)N[C@@H]([C@@H](C)O)C(=O)N1)[C@@H](C)O)C(=O)N1CCC[C@H]1C(=O)N[C@@H](CO)C(=O)N[C@@H](CO)C(=O)N[C@H](C(=O)N[C@@H](CC(N)=O)C(=O)N[C@H](C(=O)NCC(=O)N1CCC[C@H]1C(=O)N[C@@H](CCC(=O)O)C(=O)N[C@H](C(=O)N[C@@H](Cc1ccc(O)cc1)C(N)=O)[C@@H](C)O)C(C)C)[C@@H](C)O)
